Test results taken from patent US20240254245A1 (JIANGSU HENGRUI PHARMACEUTICALS, published 2024).
Residue numbers refer to the chain shown, from its start.

T1: human RANKL protein (Sino Biological, 11682-HNCH) (human, UniProt O14788 136-317, limits assumed)
T1 construct: Bought protein
T1 sequence (looked up): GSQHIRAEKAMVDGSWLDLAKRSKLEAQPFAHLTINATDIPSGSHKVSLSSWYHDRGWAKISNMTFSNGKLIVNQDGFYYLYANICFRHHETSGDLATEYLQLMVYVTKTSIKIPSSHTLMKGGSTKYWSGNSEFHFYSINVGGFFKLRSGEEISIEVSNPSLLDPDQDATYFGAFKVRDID

T2: murine RANKL (R&D Systems, 462-TR/CF) (murine, UniProt O35235 72-316, limits assumed)
T2 construct: Bought protein
T2 sequence (looked up): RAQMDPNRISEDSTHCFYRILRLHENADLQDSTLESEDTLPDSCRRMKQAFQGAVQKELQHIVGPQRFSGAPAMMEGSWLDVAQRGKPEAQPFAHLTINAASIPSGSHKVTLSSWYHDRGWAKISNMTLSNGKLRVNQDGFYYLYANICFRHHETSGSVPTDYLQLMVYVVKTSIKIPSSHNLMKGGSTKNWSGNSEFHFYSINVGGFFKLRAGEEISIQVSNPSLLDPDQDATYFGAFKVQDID

B1: Tanezumab (antibody, human IgG2, kappa, V domains shown)
VH: QVQLQESGPGLVKPSETLSLTCTVSGFSLIGYDLNWIRQPPGKGLEWIGIIWGDGTTDYNSAVKSRVTISKDTSKNQFSLKLSSVTAADTAVYYCARGGYWYATSYYFDYWGQGTLVTVSS
VL: DIQMTQSPSSLSASVGDRVTITCRASQSISNNLNWYQQKPGKAPKLLIYYTSRFHSGVPSRFSGSGSGTDFTFTISSLQPEDIATYYCQQEHTLPYTFGQGTKLEIKR
notes: Control antibody; also called control anti-NGF antibody
B2: 2-79L (antibody, V domains shown)
VH: EVQLLESGGGLVQPGGSLRLSCAASGFTFSSYAMSWVRQAPGKGLEWVSGITGSGGSTYYADSVKGRFTISRDNSKNTLYLQMNSLRAEDTAVYYCAKDPGTTVIMSWFDPWGQGTLVTVSS
VL: EIVLTQSPGTLSLSPGERATLSCRASQSVRGRYLAWYQQKPGQAPRLLIYGSSSRATGIPDRFSGSGSGTDFTLTISRLEPEDFAVFYCQQYGSSPRTFGQGTKVEIK
notes: Variable regions fused to human constant regions
B3: 2-52L (antibody, V domains shown)
VH: B2 VH
VL: B2 VL with G51Q, S52G
notes: as for B2
B4: 4-64L (antibody, V domains shown)
VH: B2 VH
VL: B2 VL with S52A, T98I
notes: as for B2
B5: 5-53H (antibody, V domains shown)
VH: B2 VH with K98Q, G101C, T102F, V104Y
VL: B2 VL with S52A
notes: as for B2
B6: 3-83L (antibody, V domains shown)
VH: B2 VH
VL: B2 VL with S28A, V29L, R30G, G31V, Y33G, S52A
notes: as for B2
B7: 3-37L (antibody, IgG4, V domains shown)
VH: B2 VH
VL: B2 VL with S28A, V29I, Y33K, G51D, S52T
notes: as for B2
B8: 3-85L (antibody, V domains shown)
VH: B2 VH
VL: B2 VL with V29I, R30P, R32P, Y33R, S52A
notes: as for B2
B9: 2-87L (antibody, IgG4, V domains shown)
VH: B2 VH
VL: B2 VL with S28Y, V29L, R30P, G31F, R32H, Y33R, G51D, S52T
notes: as for B2
B10: 5-51H (antibody, V domains shown)
VH: B2 VH with G101C, T102F, T103S, V104Y
VL: B2 VL with S52A
notes: as for B2
B11: 2-72L (antibody, V domains shown)
VH: B2 VH
VL: B2 VL with V29L, R30G, G31A, Y33G, S52T
notes: as for B2
B12: 3-20L (antibody, IgG4, V domains shown)
VH: B2 VH
VL: B2 VL with S28A, V29I, R32P, Y33N, G51D, S52T
notes: as for B2
B13: 5-58H (antibody, V domains shown)
VH: B2 VH with A97V, K98Q, T102F, V104Y
VL: B2 VL with S52A
notes: as for B2
B14: 1-22H (antibody, V domains shown)
VH: B2 VH with S30A, S31D, T52S, G53A, G56S
VL: B2 VL with S52A
notes: Variable regions were fused to human heavy and light chain constant regions to form complete chains
B15: 2-76L (antibody, IgG4, V domains shown)
VH: B2 VH
VL: B2 VL with S28A, V29I, R30P, G31Y, R32N, Y33Q, S52V
notes: as for B2
B16: 5-16H (antibody, V domains shown)
VH: B2 VH with G101A, T102S, T103I
VL: B2 VL with S52A
notes: as for B2

Target: T3, human NGF protein (Sino biological, 11050-HNAC) (human, UniProt P01138 122-241)
T3 construct: also called Human (monkey) NGF
T3 sequence (P01138 122-241 limits assumed): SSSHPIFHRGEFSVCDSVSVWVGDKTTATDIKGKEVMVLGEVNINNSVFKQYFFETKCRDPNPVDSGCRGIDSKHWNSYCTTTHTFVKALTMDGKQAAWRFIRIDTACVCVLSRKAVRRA
Assay: blocking ELISA: antibody titrated with fixed biotin-human NGF, on coated human TrkA
Experimental: (§1) The plate was incubated at 37° C. for 1.5 h. After the incubation was complete, the plate was washed 3 times with PBST. Streptavidin-HRP (Invitrogen, 434323, diluted at 1:4000) was added at 100 μL/well, and the plate was incubated at 37° C. for 1 h. The supernatant was removed. After the plate was washed 3 times with PBST, TMB chromogenic substrate (KPL, 5120-0077) was added at 100 μL/well, and the plate was incubated at room temperature for 10 to 15 min. […] The absorbance values at 450 nm were taken using a microplate reader.

With B1 the IC50 was 0.00366 µM.

Target: T3, human NGF protein (Sino biological, …)
Assay: cell-based or functional assay

For B1, the “TF-1 cell proliferation-inhibiting activity (TF-1 cells + human NGF, Cell-titer Glo) IC50” value was 0.000759 µM.

Target: T4, murine NGF (Sino Biological, 50385-MNAC) (murine, UniProt P01139 122-241)
T4 construct: Bought protein
T4 sequence (P01139 122-241 limits assumed): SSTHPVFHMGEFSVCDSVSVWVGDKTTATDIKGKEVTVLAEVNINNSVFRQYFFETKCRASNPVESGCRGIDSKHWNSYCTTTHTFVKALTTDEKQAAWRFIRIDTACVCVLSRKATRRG
Assay: ELISA on coated antigen (1 ug/mL), anti-human Fc-HRP
Experimental: (§2) The antigen was diluted to 1 μg/mL with a pH 7.4 PBS buffer (BasalMedia, B320) and added to a 96-well microplate (Coming, 9018) at 100 μL/well, and the plate was incubated overnight at 4° C. After the liquid was discarded, a 5% skim milk (BD, 232100) blocking solution diluted with PBS was added at 300 μL/well, and the plate was incubated at 37° C. for 2 h for blocking. After the blocking was complete, the blocking solution was discarded, and the plate was washed 3 times with a PBST buffer (pH 7.4 PBS containing 0.1% tween-20). Then a bispecific antibody diluted with a sample diluent (pH 7.4 containing 1% BSA) to different concentrations was added at 100 μL/well, and the plate was incubated in a 37° C. incubator for 1 h. After the incubation was complete, the plate was washed 3 times with PBST. An HRP-labeled anti-human Fc secondary antibody (Abcam, ab97225) diluted with the sample diluent was added at 100 μL/well, and the plate was incubated at 37° C. for 1 h. After the plate was washed 3 times with PBST, TMB chromogenic substrate (KPL, 5120-0077) was added at 100 μL/well, and the plate was incubated at room temperature for 10 to 15 min. 50 μL of 1 M H₂SO₄ was added to each well to stop the reactions. The absorbance values at 450 nm were taken using a microplate reader, and the EC50 values for binding of the bispecific antibody to the antigens were calculated.

For B1, the EC50 was 0.00115 µM.

Target: T1, human RANKL protein (Sino Biological, …)
Assay: as above
Experimental: as §2

B1: no binding.

Target: T2, murine RANKL (R&D Systems, 462-TR/CF)
Assay: as above
Experimental: as §2

B1: no binding.

Target: T3, human NGF protein (Sino biological, …)
Assay: as above
Experimental: as §2

Binder B1 has an EC50 of 0.00227 µM.

Target: T1, human RANKL protein (Sino Biological, …)
Assay: SPR (Biacore), antibody captured on Protein A chip, RANKL in flow, 1:1 fit
Experimental: (§3) Reaction signals were detected in real time by using Biacore, and binding and dissociation curves were obtained. After dissociation was complete in each cycle, the biochip was washed and regenerated with a glycine-hydrochloric acid regeneration solution (GE, BR-1003-54) having a pH of 1.5. Fitting was performed on the experimental data using BIAevaluation version 4.1 software with a 1:1 model, and affinity values were obtained.

Point of comparison: B10, Kd 0.0236 µM. Against it:
- B2 — within 1.5-fold, 0.0163 µM
- B3 — 1.7-fold lower, 0.0142 µM
- B4 — within 1.5-fold, 0.0171 µM
- B5 — within 1.5-fold, 0.034 µM
- B6 — within 1.5-fold, 0.0207 µM
- B7 — within 1.5-fold, 0.0197 µM
- B8 — within 1.5-fold, 0.0223 µM
- B9 — within 1.5-fold, 0.0256 µM
- B11 — within 1.5-fold, 0.019 µM
- B12 — 1.7-fold lower, 0.0135 µM
- B13 — 1.7-fold higher, 0.041 µM
- B14 — 2.4-fold lower, 0.00981 µM
- B15 — within 1.5-fold, 0.0203 µM
- B16 — 2.6-fold lower, 0.00891 µM

Point of comparison: B6, “Ratio of affinities (fold increase in affinity relative to denosumab)” value 0.45 fold. Against it:
- B2 — higher, 0.57 fold
- B3 — higher, 0.65 fold
- B4 — higher, 0.54 fold
- B5 — lower, 0.27 fold
- B7 — higher, 0.47 fold
- B8 — lower, 0.41 fold
- B9 — lower, 0.36 fold
- B10 — lower, 0.39 fold
- B11 — higher, 0.49 fold
- B12 — higher, 0.68 fold
- B13 — lower, 0.23 fold
- B14 — higher, 0.94 fold
- B15 — higher, 0.46 fold
- B16 — higher, 1.04 fold

Point of comparison: B7, koff 0.000305 s⁻¹. Against it:
- B2 — within 1.5-fold, 0.000232 s⁻¹
- B3 — within 1.5-fold, 0.000222 s⁻¹
- B4 — within 1.5-fold, 0.000253 s⁻¹
- B5 — 1.9-fold higher, 0.000583 s⁻¹
- B6 — within 1.5-fold, 0.000322 s⁻¹
- B8 — within 1.5-fold, 0.000335 s⁻¹
- B9 — within 1.5-fold, 0.000273 s⁻¹
- B10 — 2.3-fold higher, 0.00069 s⁻¹
- B11 — within 1.5-fold, 0.000308 s⁻¹
- B12 — within 1.5-fold, 0.000272 s⁻¹
- B13 — 1.6-fold higher, 0.000501 s⁻¹
- B14 — within 1.5-fold, 0.000253 s⁻¹
- B15 — within 1.5-fold, 0.000341 s⁻¹
- B16 — within 1.5-fold, 0.00026 s⁻¹

Point of comparison: B3, kon 15700 M⁻¹ s⁻¹. Against it:
- B2 — within 1.5-fold, 14200 M⁻¹ s⁻¹
- B4 — within 1.5-fold, 14800 M⁻¹ s⁻¹
- B5 — within 1.5-fold, 17200 M⁻¹ s⁻¹
- B6 — within 1.5-fold, 15600 M⁻¹ s⁻¹
- B7 — within 1.5-fold, 15500 M⁻¹ s⁻¹
- B8 — within 1.5-fold, 15000 M⁻¹ s⁻¹
- B9 — within 1.5-fold, 10700 M⁻¹ s⁻¹
- B10 — 1.9-fold higher, 29200 M⁻¹ s⁻¹
- B11 — within 1.5-fold, 16200 M⁻¹ s⁻¹
- B12 — within 1.5-fold, 20100 M⁻¹ s⁻¹
- B13 — within 1.5-fold, 12200 M⁻¹ s⁻¹
- B14 — 1.6-fold higher, 25800 M⁻¹ s⁻¹
- B15 — within 1.5-fold, 16800 M⁻¹ s⁻¹
- B16 — 1.9-fold higher, 29200 M⁻¹ s⁻¹

Target: T1, human RANKL protein (Sino Biological, …)
Assay: blocking ELISA: antibody titrated with fixed biotin-human RANKL, on coated human RANK
Experimental: as §1, with “After” for “The plate was incubated at 37° C. for 1.5 h. After”

Point of comparison: B5, IC50 0.00137 µM. Against it:
- B13 — within 1.5-fold, 0.000999 µM

Target: T3, human NGF protein (Sino biological, …)
Assay: cell-based or functional assay
Remark: another data set of the same source

With B1 the “TF-1 cell proliferation-inhibiting activity, fold relative to bispecific antibody 1” value was ~4.2 times.

Target: T3, human NGF protein (Sino biological, …)
Assay: SPR (Biacore), antibody captured on Protein A chip, antigen in flow, 1:1 fit
Experimental: as §3

B1 was tested, and the Kd was 0.000142 µM.

Binder B1 has a koff of 0.000184 s⁻¹.

Work on B1 yielded a kon of 1.29e+06 M⁻¹ s⁻¹.
